Measured values from patent US20220227861A1 (UNIVERSITY COLLEGE CARDIFF CONSULTANTS, published 2022).

Target: T1, ZIP10 (SLC39A10) zinc transporter, endogenous in cells (human, UniProt Q9ULF5 26-831)
T1 construct: Endogenous ZIP10 of MCF-7 cells or of ZIP6-transfected cells
T1 sequence: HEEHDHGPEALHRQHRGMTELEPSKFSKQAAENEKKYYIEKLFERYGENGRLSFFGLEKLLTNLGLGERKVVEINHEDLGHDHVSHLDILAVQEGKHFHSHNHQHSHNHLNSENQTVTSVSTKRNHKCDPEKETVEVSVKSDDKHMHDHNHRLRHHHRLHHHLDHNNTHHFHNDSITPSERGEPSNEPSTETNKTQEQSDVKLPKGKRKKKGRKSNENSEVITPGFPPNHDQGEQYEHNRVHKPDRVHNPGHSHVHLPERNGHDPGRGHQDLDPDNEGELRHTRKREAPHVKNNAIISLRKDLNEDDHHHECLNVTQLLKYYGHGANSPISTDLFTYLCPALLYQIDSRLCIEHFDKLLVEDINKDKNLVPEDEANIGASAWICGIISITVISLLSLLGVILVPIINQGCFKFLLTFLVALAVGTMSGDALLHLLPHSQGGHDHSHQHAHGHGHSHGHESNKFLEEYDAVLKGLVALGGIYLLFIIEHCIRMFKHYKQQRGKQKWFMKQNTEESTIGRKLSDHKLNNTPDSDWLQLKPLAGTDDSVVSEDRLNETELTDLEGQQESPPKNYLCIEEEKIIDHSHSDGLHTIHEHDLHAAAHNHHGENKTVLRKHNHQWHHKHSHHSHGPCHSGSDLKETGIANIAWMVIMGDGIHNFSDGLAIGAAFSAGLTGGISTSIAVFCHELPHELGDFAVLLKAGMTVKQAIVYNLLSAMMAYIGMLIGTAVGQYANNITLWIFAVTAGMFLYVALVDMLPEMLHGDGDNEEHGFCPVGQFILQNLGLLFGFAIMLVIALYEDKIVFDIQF
Assay: immunoprecipitation with V5 antibody, Western blot for ZIP10
Description: FIG. 2. […] [A] FACS cell cycle analysis confirms the increase in the G2/M population in nocodazole-treated cells, compared to control. […] Statistical significance is determined by Student's t test. *** p<0.001. [B] Control PLA using either our ZIP6-Y or our ZIP10 antibodies alone in nocodazole-treated MCF-7 cells produces only a few dots in mitotic cells (arrow), compared to FIG. 3D. Scale bar, 20 μm. [C] […] [D] FACS cell cycle analysis confirms the increase in the G2/M population in the non-adherent cells collected using the mitotic shake-off technique, compared to the adherent cells from the same dishes. […] Statistical significance is determined by Student's t test. *** p<0.001. [E] PLA using ZIP6-SC and pY⁷⁰⁵STAT3 antibodies together as well as individual control ZIP6-SC and […] antibodies in nocodazole-treated MCF-7 cells produces only few dots, compared to FIG. 5F.
Cells were harvested, washed with PBS, lysed for 1 hour at 4° C. with lysis buffer pH7.6 (50 mM Tris, 150 mM NaCl, 5 mM EGTA and 1% Triton X-100) with protease inhibitor cocktail for mammalian cells (Signa-Aldrich) and phosphatase inhibitors (2 mM sodium orthovanadate and 50 mM sodium fluoride). Protein was measured using Bio-Rad/Bradford dye-binding protein microassay. Western Blot results of 40 μg/lane from three separate experiments were normalised to GAPDH values. […]

binding result: binds
B1: recombinant ZIP6 wild-type with C-terminal V5 tag (other)
chain: FPQTTEKISPNWESGINVDLAISTRQYHLQQLFYRYGENNSLSVEGFRKLLQNIGIDKIKRIHIHHDHDHHSDHEHHSDHERHSDHEHHSEHEHHSDHDHHSHHNHAASGKNKRKALCPDHDSDSSGKDPRNSQGKGAHRPEHASGRRNVKDSVSASEVTSTVYNTVSEGTHFLETIETPRPGKLFPKDVSSSTPPSVTSKSRVSRLAGRKTNESVSEPRKGFMYSRNTNENPQECFNASKLLTSHGMGIQVPLNATEFNYLCPAIINQIDARSCLIHTSEKKAEIPPKTYSLQIAWVGGFIAISIISFLSLLGVILVPLMNRVFFKFLLSFLVALAVGTLSGDAFLHLLPHSHASHHHSHSHEEPAMEMKRGPLFSHLSSQNIEESAYFDSTWKGLTALGGLYFMFLVEHVLTLIKQFKDKKKKNQKKPENDDDVEIKKQLSKYESQLSTNEEKVDTDDRTEGYLRADSQEPSHFDSQQPAVLEEEEVMIAHAHPQEVYNEYVPRGCKNKCHSHFHDTLGQSDDLIHHHHDYHHILHHHHHQNHHPHSHSQRYSREELKDAGVATLAWMVIMGDGLHNFSDGLAIGAAFTEGLSSGLSTSVAVFCHELPHELGDFAVLLKAGMTVKQAVLYNALSAMLAYLGMATGIFIGHYAENVSMWIFALTAGLFMYVALVDMVPEMLHNDASDHGCSRWGYFFLQNAGMLLGFGIMLLISIFEHKIVFRINF
notes: Expressed by transfection and immunoprecipitated from cell lysate with V5 antibody; also called ZIP6 wild-type (WT); ZIP6/LIV-1/SLC39A6 in pcDNA3.1/V5-His-TOPO; not shown: C-terminal V5 tag from vector pcDNA3.1/V5-His-TOPO
